Laboratory results taken from publication PMC9513094.

Tests used:
GFP-TRB1 (Arabidopsis) = GFP-TRB1 (Arabidopsis) (UniProt Q8VWK4); test: FRET or BRET; FRET-FLIM (TCSPC); GFP fusion as donor, RFP fusion as acceptor, co-expressed in plant cells; donor alone as control; 10 images a series
GFP-TRB2 (Arabidopsis) = GFP-TRB2 (Arabidopsis) (UniProt Q9FJW5); test: as above
Sequence of UniProt Q9FJW5 (Q9FJW5 whole entry): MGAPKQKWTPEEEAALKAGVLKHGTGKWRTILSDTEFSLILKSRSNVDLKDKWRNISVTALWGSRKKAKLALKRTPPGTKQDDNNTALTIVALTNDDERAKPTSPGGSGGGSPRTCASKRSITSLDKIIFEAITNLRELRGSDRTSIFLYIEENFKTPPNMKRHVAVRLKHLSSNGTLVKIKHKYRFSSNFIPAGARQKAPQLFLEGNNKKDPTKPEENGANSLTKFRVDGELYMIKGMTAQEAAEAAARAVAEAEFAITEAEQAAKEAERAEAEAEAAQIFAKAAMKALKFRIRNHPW

Sequence of UniProt Q8VWK4 (Q8VWK4 whole entry, the tested form may be a part): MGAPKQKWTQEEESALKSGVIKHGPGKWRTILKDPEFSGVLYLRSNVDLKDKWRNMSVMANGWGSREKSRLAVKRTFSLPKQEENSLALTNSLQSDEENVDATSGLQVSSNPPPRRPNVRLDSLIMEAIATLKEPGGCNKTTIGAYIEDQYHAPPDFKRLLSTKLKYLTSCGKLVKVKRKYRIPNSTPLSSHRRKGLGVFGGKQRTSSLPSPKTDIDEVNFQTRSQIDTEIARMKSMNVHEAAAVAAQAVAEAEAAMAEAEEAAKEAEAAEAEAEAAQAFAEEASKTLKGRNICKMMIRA

Row | Binder | fluorescence lifetime of the GFP donor in the presence of the RFP acceptor (GFP-TRB1 (Arabidopsis)) [ns] | fluorescence lifetime of the GFP donor in the presence of the RFP acceptor (GFP-TRB2 (Arabidopsis)) [ns]
1 | RFP-VAP27-1 (natural protein) MSNIDLIGMSNRDLIGMSNSELLTVEPLDLQFPFELKKQISCSLYLTNKTDNNVAFKVKTTNPKKYCVRPNTGVVLPRSTCEVLVTMQAQKEAPSDMQCKDKFLLQGVIASPGVTAKEVTPEMFSKEAGHRVEETKLRVTYVAPPRPPSPVHEGSEEGSSPRASVSDNGHGSEFSFERFIVDNKAGHQENTSEARALITKLTEEKQSAIQLNNRLQRELDQLRRESKKSQSGGIPFMYVLLVGLIGLILGYIMKRT | 2.31 | 2.21
2 | RFP-ATG8e (natural protein) MNKGSIFKMDNDFEKRKAEAGRIREKYPDRIPVIVEKAEKSEVPNIDKKKYLVPSDLTVGQFVYVIRKRIKLSAEKAIFIFVDNVLPPTGELMSSVYEDKKDEDGFLYITYSGENTFG | 2.3 | 
